Reference: patent US20220089642A1

Target: SARS-CoV1

Fc-ACE2 full length construct (Fc fusion)
Kd: 1.84 nM | koff: 0.000435 s⁻¹ | kon: 237000 M⁻¹ s⁻¹
